Laboratory results published in the DeepSol protein solubility set.

experiment: soluble on expression in E. coli; label from the status in PepcDB or PDB records

Sequence	soluble on expression in E. coli
MKERKFINEAVKRLLVCEYVVKETENAGFGNMVMKRTPFGTNITLYVNRPGLVIGRRGSKVQQMTDTLEKKYGIETPQIEVKDVKDPDLNPSVIAKKIALSLEKGWSYRKAGNTSLNRTIQAGAKGVLIKISGKISGERARYQKFIYGNVKYSGEPGSKGMITGFSTAKLKVGILGVTVKILNPEYKLPDVFSIENITGGEEVGTESKADQTDVEGRETGNAEES	not soluble
MSVKHHDVIIIGAGAAGLMCAATAGYRGRDVLVLDNAKQAGRKILISGGGRCNFTNLKVEPANFICGNPHFVKSALARYPSQQFIELVERHGIEYHERDHGQLFCNDSAKEIVTMLLTECEWAGVSIKLRTDILSVGKNEAGRFELNTSNGELSCDSLVIATGGLSMPKLGATPYGYQLAEQFGLKVLPTHAGLVPFTWHSEDKIRFEPLSGIAVPSRITAKDGTAFSEALLFTHRGLSGPAILQISNYWKAGETIKINLLPNMDAAQAIEQQLAAHPKQSLRNTLSLWLPKRLVEVLFDEVLLNKALNQLVHAERAKLVDDLHRWTVLMNGTEGYRTAEVTLGGVDTHELSSKTMEAIKVPGLFFIGEVMDVSGWLGGFNFQWAWASGVAAGKAV	not soluble
SGNLLKVLTCTDLEQEPNFFLDFENAQPTEAERETWEEVDVVLKDALGILDELQAYKGAGQEIREAIQNPNDEALQDQAWAAVVPLVGKLKKFYEFSQRLEAALHSLLRALTSETYDDPTQHLEREQALAKQFAEILHFTLRFDELKMTNPAIQNDFSYYRRTLSRMRINNVPAEGENEVNNELANRISLFYADATPMLKTLSDGTTKFVSENKNLPIENTTDVLSTMASVCKVMLETPEYRSRFSSEETVSFCLRVMVGVIILYDYVHPVGAFAKSSKIDMKGCIKVLKDQPPNSVEGLLNALRYTTKHLNDESTTKTIKSMLQ	soluble
MSTFRLITGGIGTGKTLWTVEQLFKLKNLTPDRLVYTDITGIKHTGVTVVPPDFDWRNVEDNSLIIFDEVQYKELFSRHNSKRDKQILDLTTMRKRGIEIWCITQRARFLNQDVLGLVNEHIHLEKTGDKTARVYIWHEAETNITKTKKMFPFEKYVWQHPTDLYGFYESIKPDA	not soluble
MQMAGFGLIAKLRNKIRVKPNNKIQIGKNTRIRYCDIYVNGNNNQLIIHNGANLKGVSIELNGNNCLLEIGENCVIGENCFLSCRESGTKLVIGKECMFSRNVKLMTSDGHDILRDGKRINPAKSIYIGSHVWLADNVTILKGVDIGSGSIIGINSTVTKSIGQYCIAAGNPARKIKDNISWNTTLSY	not soluble
SKYGLQDSDEEEEEHPSKTSTKKLKTAPLPPASQTTPLQMALNGKPAPPPQVEKKGQLEHHHHH	soluble
MTSAAEITAAVRQLYNTYPFPPEPLLDEPPPGYNWRWSWPAAYSFCTGRYPSQLDVAILDAGCGTGVGTEYLAHLNPQAKITALDLSEAALAIACERCRRSGATNVQFHHLSLEEVAQLGQTFQMINCVGVLHHLPEPQRGIQALADVLAPGGIVHIFVYGEYGRWEIKLMQQAIALLQGSDRHNYREGVAIGRQLFAALPENNRLKKREQERWSLENQRDECFADMYVHPQEIDYTIASLFELIRASGLEFIGFSNPQVWQLERLLGSQPELLQRAQQLDPIQQYQLIECLDPEAMTHFEFFLAKPPLPRHDWAADRELLAAIPWRHPCIDGWPGACVFNCHYEVIHLNQAEQEFLNAASGKATVAELLAQQPDFNLAEVRSLLARHLLLLGVKE	not soluble
RKGHFSRCPKQYKHYCIKGRCRFVVAEQTPSCVCDEGYIGARCERVDLFY	soluble
GPGSMVRCSRPAFRQVCRAWGTRVSYTHMLMAESFVKSPHARHAEFARYEGENRLVAQLAAKSGPAAAQAALLLRPYCDGIDLNCGCPQRWAMKEGIGAALLDQPERVADMVRSIRNAMPDGSTAPMIVGNGGEYSSCTSAVPPFLPCVVKMRIKDDLRRSVDFARQCEAAGVSWLTVHGRTPTCHSSTAVQFEAVKLIRENLSVPVVLNGGVTDVSTAMEAALRTGCGGLMSANGLLDNPAMFYCGASRAAMEAEMSFVTSCWGRPPRTCDPVSPPAETAAPDVFSEVFSPVRPVSFLWAPDRSNAEAVLLRYTVADMWQAAVTPREVISDFMRAAMRTDLVVPTTVQQVLRMARLYVSPAERNHLALLRSNLSVLNALQEIDVYVESGRIACE	not soluble
MGSDKIHHHHHHMEQSATPACSICFPDSICRISPSSPLASPNGDEYHMKIALLCSGLGNVQRGHEIFVRDLFDMLKGSVDITLFKGGGEPAPNELVIDNVSRNAPSLQNIHLAVSPRWKVAMQEQERIRIETETFAHAALRPLLEGGYDIIHCLEQEVCNRLYGFRHLFAHTPKFLFSNGGAIPAAKLSNCDFVQEHTEYNLQHSAREKAFCIPHGVDIQRFNPSISSDFRARYGIAEDAFVVISVGIICYWHKRMDYLIKEVAQIPEAHLLIVGQECADTPAIKALGEKLMPGRITFTKMPHDELPQAYAAADVFALGSLFETFGIVYIEALAMGLPVFCTEHPNQRSIVREGVFLDIKQAGALRDALLKRDPAQMRYLRERGPQIARETYALEKLKSAYIEHYQRIAASEVSLPRYTFKTKLQDNVRSLYRRLSRG	not soluble
DAHSLWYNFTIIHLPRHGQQWCEVQSQVDQKNFLSYDCGSDKVLSMGHLEEQLYATDAWGKQLEMLREVGQRLRLELADTELEDFTPSGPLTLQVRMSCECEADGYIRGSWQFSFDGRKFLLFDSNNRKWTVVHAGARRMKEKWEKDSGLTTFFKMVSMRDCKSWLRDFLMHRKKRLE	soluble
MKAKAILLASVLLVGCQTSQNTGNVQQHAQSLSAAGQGEAGKFTSQARWMDDGTSIAPDQDLWAFIGDELKMGIPENSRIREQKQKYLRNKSYLHDVTLRAEPYMYWIAGQVKKRNMPMELVLLPIVESAFDPHATSGANAAGIWQIIPSTGRNYGLKQTRNYDARRDVVASTTAALDMMQRLNKMFDGDWLLTVAAYNSGEGRVMRAIKANKARGKPTDFWSLSLPRETKLYVPKMLALSEILKNSKRYGVRLPTTDESRALARVRLNSPVEMAQVADMAGMSISKLKTFNAGVKGSTLGVSGPQYVMVPKKHAEQLRESLASGEIDAVQSQLIADNTPLNSRSYKVRSGDTLSGIASRLGVSTKDLQQWNNLRGSRLKIGQSLTVGAGSSAQRLANNSDSITYRVRKGDSLSSIARRHGVNIKDVMRWNHDTDNLQPGDQLTLFVKDNSTPDSLEHHHHHH	soluble
MLYKGCLMKSDVQLNLRAKESQRALIDAAAEILHKSRTDFILETACQAAEKVILDRRVFNFNDEQYEEFINLLDAPVADDPVIEKLLARKPQWDV	not soluble
TLTIDDGNIEIVGTGVKGKLPTVWLQYGQVNLKASGGNGKYTWRSANPAIASVDASSGQVTLKEKGTTTISVISSDNQTATYTIATPNSLIVPNMSKRVTYNDAVNTCKNFGGKLPSSQNELENVFKAWGAANKYEYYKSSQTIISWVQQTAQDAKSGVASTYDLVKQNPLNNIKASESNAYATCVK	soluble
MSSQISEIEQEQLIEKLEIFKIHGRDKRGRKILRIIGKFFPARFLSLDVLKKYLEEKIFPRLGRKPFAVLYVHTGVQRSENFPGISALRAIYDAIPVNVRDNLQEVYFLHPGLQSRLFLATCGRFLFSGGLYGKLRYISRVDYLWEHVRRNEIEMPEFVYDHDDDLEYRPMMDYGQESDHARVFAGAAVDSSVSSFSMRCIS	soluble
MTLPIRNVAIIAHVDHGKTTLVDALLKQSGIFREGEDVPDCVMDSNALERERGITILSKNTAVRYKETLINIVDTPGHADFGGEVERVLGMVDGCLLIVDANEGPMPQTRFVLKKALEKGLRPIVVVNKIDRGQADPHVAVDKVLDLFLELGADEDQCDFPYLFASGMGGYAKENLEAESVDMQPLFDAILRHVPAPVGDPNKPLQLQVTTLDYSEYLGRIVIGRIHNGTIRAGQQAALVVEDGSIVKGKITKLMGFEGLKRVEMTEATAGYIVAVAGFADAYIGETITDPNEPQALPLIKVDEPTLQMTFWVNDSPFAGQEGKLVTSRQVRDRLFRELETNVALRVEETDSPDKFLVSGRGELHLGILIETMRREGFEFQVSQPQVIYRTVNGQPCEPYELLVLDVPADAVGSCIERLGQRKGEMQDMQPVAGDRTQLEFVIPARGLIGFRGEFMRMTRGEGIMNHSFLDYRQLSGDIEARNKGVLISFEEGISTFYAMKNAEDRGSFFITPGTKVYRGMIVGEHNRPQDLELNVCKTKQLTNHRASGGDELVQLQAPVDMSLERALEYIGPDELVEVTPQSIRLRKMAKKLAKR	not soluble
